Reference: US20170184612A1, “USE OF LEUKOCYTES AND NOVEL BIOMARKERS IN THE DIAGNOSIS, CONFIRMATION, AND TREATMENT OF A NEUROLOGICAL DISORDER” (The Trustees of Columbia University in the City of New York, priority 2014, published 2017)

Key:
[1] = system: hES derived spinal motor neuron (MN) cultures; assay: MHC-I induction in hES-derived motor neurons, immunofluorescence; type: cell-based, human; conditions: 100 ng/ml, 72h
Method: (§1) hES derived DA neuronal cultures were obtained as described (Kriks et al., 2011). Briefly, H9 human ES cells were subjected to dual SMAD-inhibition followed by exposure to sonic hedgehog, purmorphamine, FGF8 and CHIR99021. Neurons were passaged on day 20, replated on glass-bottom dishes on day 30 at a density of 200.000 cells per 20 μl droplet, and then matured in Neurobasal media with the addition of B27 supplement, GDNF, BDNF, ascorbic acid, cAMP, TGFbeta and DAPT. hES derived spinal motor neuron (MN) cultures expressing EYFP under control of the human synapsin promoter were generated by exposure to dual SMAD-inhibition followed by caudalization with retinoid acid and ventralization through the hedgehog pathway. MN aggregates were replated on day 20 and matured in Neurobasal media with the addition of B27 supplement, GDNF, BDNF, ascorbic acid, cAMP and DAPT.
(§2) Cultures were treated with human IFN-γ (eBioscience) at a non-toxic concentration for hES (100 ng/ml, 72h). Cultures were then incubated with the MHC-I antibody prior to fixation in 4% paraformaldehyde and double immunofluorescence for TH and MHC-I as above. Micrographs were acquired using a Leica TCS SP5-II inverted confocal microscope.

[2] = system: hES derived DA neuronal cultures; assay: MHC-I induction in hES-derived DA neurons, immunofluorescence; type: cell-based, human; conditions: 100 ng/ml, 72h
Method: as §1, §2

[3] = system: primary TH+ neurons (SN, VTA, LC); assay: MHC-I induction in murine primary catecholamine neurons, immunofluorescence; type: cell-based, mouse
Excerpt: To study the mechanisms underlying the preferential display of MHC-I by catecholamine neurons, primary neuronal cultures of >7 days in vitro prepared from 0-3 day old C57BL/6 mice were examined in the studies herein (Sulzer et al., 2008). DA neurons from VTA and SN and NE neurons of the LC were identified by immunolabel for TH. MHC-I staining was examined using an antibody raised against the H-2K^b and H-2D^b class I mouse alloantigens.
B6.129P2-B2m^tm1Unc/J mice were generated by a targeted disruption of the β2m gene, and have little or no MHC-I protein expression on the cell surface^68. […]
(§3) Images were captured using a Leica SP5 microscope system. There was no fluorescence bleed-through of secondary antibodies under the conditions used. […]
(§4) In order to assess the proportion of TH^+ and MAP-2^+ neurons that expressed MHC-I^+, first TH^+ and MAP-2^+ neurons were counted in 24 fields surrounding the border of the well at 20× magnification. The number of TH^+ or MAP-2^+ neurons with intact soma and two or more neurites equal to or greater than the diameter of the cell soma was counted. […]

VM DA (TH+) neurons = assay: Antigen processing and presentation, […]-MHC-I immunolabel; type: cell-based, mouse; conditions: OVA 7 days, then IFN-γ 72 h
Method: Following exposure of SN neuronal cultures to OVA or vehicle for 7 days, neurons were exposed to IFN-γ or saline for 72 h (note that these cultures were never exposed to […] (SEQ ID NO: 9)). The cultures were then double immunolabeled for TH and an antibody that recognizes only the MHC-I complex when is occupied by […] (SEQ ID NO: 9) ([…]-MHC-I). Occasional label of astrocytes, but not neurons, for […]-MHC-I was observed when the cultures were exposed to the vehicle, IFN-γ, or OVA alone (FIG. 5A). […] The results herein indicate that OVA had been processed to […] (SEQ ID NO: 9) within these mixed neuron/astrocyte cultures and loaded into the MHC-I groove within neuronal cytosol, and that the resulting complex was presented on the neuronal plasma membrane.
IFN-γ (R&D Systems) was used at a range of non-toxic concentrations for neurons or OT-1 cells (10 μg/ml-100 ng/ml, 72h). […]
as §3, §4

B1: human IFN-γ: human IFN-γ (eBioscience), proinflammatory cytokine (protein, UniProt P01579 24-161, looked up)
Interferon gamma: QDPYVKEAENLKKYFNAGHSDVADNGTLFLGILKNWKEESDRKIMQSQIVSFYFKLFKNFKDDQSIQKSVETIKEDMNVKFFNSNKKKRDDFEKLTNYSVTDLNVQRKAIHELIQVMAELSPAAKTGKRKRSQMLFRG
MHC-I expression in mature motor neurons [1]: no MHC-I expression was observed
plasma membrane expression of MHC-I by TH+ neurons [2]: virtually all TH+ neurons

B2: IFN-γ: recombinant mouse IFN-γ (R&D Systems) (protein)
chain: HGTVIESLESLNNYFNSSGIDVEEKSLFLDIWRNWQKDGDMKILQSQIISFYLRLFEVLKDNQAISNNISVIESHLITTFFSNSKAKKDAFMSIAKFEVNNPQVQRQAFNELIRVVHQLLPESSLRKRKRSRC
MHC-I (H-2Kb and H-2Db) immunolabel ([3]; neurons from β2m deficient (MHC-I null, KO) mice): did not induce MHC-I
plasma membrane MHC-I expression on TH+ neurons ([3]; wild type C57BL/6 neurons): induced robust plasma membrane neuronal MHC-I expression

B3: OVA: chicken OVA, a 385 amino acid foreign protein (protein, UniProt P01012 2-386, looked up)
Ovalbumin: GSIGAASMEFCFDVFKELKVHHANENIFYCPIAIMSALAMVYLGAKDSTRTQINKVVRFDKLPGFGDSIEAQCGTSVNVHSSLRDILNQITKPNDVYSFSLASRLYAEERYPILPEYLQCVKELYRGGLEPINFQTAADQARELINSWVESQTNGIIRNVLQPSSVDSQTAMVLVNAIVFKGLWEKAFKDEDTQAMPFRVTEQESKPVQMMYQIGLFRVASMASEKMKILELPFASGTMSMLVLLPDEVSGLEQLESIINFEKLTEWTSSNVMEERKIKVYLPRMKMEEKYNLTSVLMAMGITDVFSSSANLSGISSAESLKISQAVHAAHAEINEAGREVVGSAEAGVDAASVSEEFRADHPFLFCIKHIATNAVLFFGRCVSP
TH+ neurons immunolabeled for SIINFEKL-MHC-I (VM DA (TH+) neurons): ~10%
